Biological target: human IL-6 (residues 3-185) displayed on the surface of yeast (human) (UniProt P05231)
Assay: flow cytometry titration of IL-6Rα ECD on IL-6-displaying yeast

Kd: 88 nM
Substance: human IL-6Rα extracellular domain (ECD), residues 89-303 of the mature protein, with C-terminal biotin acceptor peptide and hexahistidine, biotinylated (from UniProt P08887 108-322) (receptor)
